Data: paper PMC4017264 (Molecular Cell, 2014)
Where “and” joins values, the source holds several entries; their conditions need not be identical. Equal values may be shown once. One block for each molecule: values may come before it. No end group written: not given here. *: point of attachment. FITC = O=C1OC2(c3ccc(O)cc3Oc3cc(O)ccc32)c2ccc(NC(=S)*)cc21; Ahx = NCCCCCC(=O)O

How the values were obtained:
[1] = test system: HOIP (Met1-linked polyUb); assay: HOIP autoubiquitination, purification of endogenous Met1-polyUb conjugates (M1-SUB pulldown); type: cell-based; settings: U2OS/NOD2 cells, ectopic OTULIN variants, basal, identical with L18-MDP or TNF, immunoblot
Text: Antibodies and affinity resin
The following antibodies and reagents were used according to the manufacturers’ instructions: anti-HA-agarose resin (A2095), anti-V5-agarose resin (A7345) and rabbit polyclonal anti-HOIP/RNF31 (SAB2102031, Sigma-Aldrich), rat monoclonal anti-HA (#11867423991, Roche Diagnostics, Burgess Hill, UK), mouse monoclonal anti-ubiquitin (IMG-5021, Imgenex, San Diego, CA), rabbit polyclonal anti-SHARPIN (#14626-1-AP, ProteinTech, Chicago, IL), rabbit polyclonal anti-RBCK1/HOIL-1 (NBP1-88301, Novus Biologicals, Littleton, CO), mouse monoclonal anti-V5 (MCA1360, AbD Serotec, Kidlington, UK), mouse monoclonal anti-$-actin (MAB1501, Chemicon, Millipore, Billerica, MA), rabbit polyclonal anti-HOIL-1, rabbit polyclonal anti-HOIP/RNF31
(Sigma), mouse monoclonal anti-p97 (Thermo Scientific). The
Fam105B/OTULIN antibody was previously described (Keusekotten et al., 2013). […]
HEK293ET, RPE1 and U2OS cells were collected, washed with PBS and lysed on ice for 30 minutes in SEC cell extraction buffer (150 mM NaCl, 50 mM Tris-HCl pH 7.4, 1 mM MgCl2, 1 mM DTT, 0.3% NP40, protease and (Roche)). […] In total 3.1 mg protein extract was analyzed on a Superdex 200 10/300 GL column (GE Life Sciences). […]

[2] = biological target: FITC-Ahx-labeled OTULIN PIM peptide (aa 49–67) (UniProt Q96BN8); assay: fluorescence polarisation; serially diluted PUB domains and HOIP variants mixed with an equal volume of 100 nM FITC-Ahx-labeled peptide; one-site binding model; triplicate
[3] = biological target: T1, HOIP PUB domain (aa 1–184) V104A (UniProt Q96EP0 1-184, V104A); assay: as above; settings: both partners purified
T1 sequence (looked up): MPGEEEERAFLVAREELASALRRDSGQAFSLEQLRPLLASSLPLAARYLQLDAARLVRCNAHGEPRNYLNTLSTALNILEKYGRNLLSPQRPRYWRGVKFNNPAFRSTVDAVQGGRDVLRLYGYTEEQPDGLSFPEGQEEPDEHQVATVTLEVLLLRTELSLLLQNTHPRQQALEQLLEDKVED

HOIP PUB domain N101R = biological target: T2, HOIP PUB domain N101R (UniProt Q96EP0 1-184, N101R); assay: as above; settings: both partners purified
T2 construct: HOIP PUB domain with N101R
T2 sequence (looked up): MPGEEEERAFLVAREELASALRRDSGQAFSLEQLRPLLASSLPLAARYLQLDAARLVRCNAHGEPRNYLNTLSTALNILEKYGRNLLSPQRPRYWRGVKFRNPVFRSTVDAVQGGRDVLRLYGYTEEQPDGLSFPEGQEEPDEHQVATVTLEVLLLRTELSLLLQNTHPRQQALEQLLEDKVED

[4] = biological target: T3, HOIP PUB domain (aa 1–184) Y82F (UniProt Q96EP0 1-184, Y82F); assay: as above; settings: both partners purified
T3 sequence (looked up): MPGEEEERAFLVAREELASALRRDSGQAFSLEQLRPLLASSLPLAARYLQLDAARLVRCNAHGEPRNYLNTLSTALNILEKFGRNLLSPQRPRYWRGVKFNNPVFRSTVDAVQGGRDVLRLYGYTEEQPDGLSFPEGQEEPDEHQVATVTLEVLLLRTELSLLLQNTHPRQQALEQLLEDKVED

[5] = biological target: T4, HOIP PUB domain (aa 1–184) N85A (UniProt Q96EP0 1-184, N85A); assay: as above; settings: both partners purified
T4 sequence (looked up): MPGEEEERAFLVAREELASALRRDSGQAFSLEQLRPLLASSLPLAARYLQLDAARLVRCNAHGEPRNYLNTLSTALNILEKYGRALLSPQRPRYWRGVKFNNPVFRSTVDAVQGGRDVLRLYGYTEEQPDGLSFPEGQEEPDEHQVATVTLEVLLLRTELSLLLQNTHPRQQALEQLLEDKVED

HOIP PUB domain K99R = biological target: T5, HOIP PUB domain K99R (UniProt Q96EP0 1-184, K99R); assay: as above; settings: both partners purified
T5 construct: HOIP PUB domain with K99R
T5 sequence (looked up): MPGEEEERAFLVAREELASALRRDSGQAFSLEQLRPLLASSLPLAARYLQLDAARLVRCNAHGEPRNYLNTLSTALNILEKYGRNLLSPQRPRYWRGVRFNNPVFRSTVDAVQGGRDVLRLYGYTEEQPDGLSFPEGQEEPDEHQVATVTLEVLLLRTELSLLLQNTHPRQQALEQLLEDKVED

PNGase PUB domain R55A = biological target: T6, PNGase PUB domain R55A (UniProt Q96IV0 11-109, Arg55 was mutated to Ala); assay: as above; settings: both partners purified
T6 construct: PNGase PUB domain with Arg55 mutated to Ala; also called PNGase mutant; Arg55 mutated to Ala
T6 sequence (looked up): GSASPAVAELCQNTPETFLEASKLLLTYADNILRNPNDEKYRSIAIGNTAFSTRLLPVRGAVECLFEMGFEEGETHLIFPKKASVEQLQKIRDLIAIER

[6] = biological target: HOIP PUB domain (aa 1–184) Y82F (UniProt Q96EP0 1-184, Y82F); assay: FP
[7] = biological target: HOIP PUB domain (aa 1–184) N85A (UniProt Q96EP0 1-184, N85A); assay: FP
[8] = biological target: T7, HOIP PUB domain (aa 5–180) (UniProt Q96EP0 5-180); assay: crystal structure; HOIP 5–180 with OTULIN 49–67, 2.0 Å, space group P 6(1), two molecules in the asymmetric unit; settings: both partners purified
T7 construct: HOIP, residues 5-180, PUB domain; also called HOIP 5–180; slightly truncated HOIP PUB domain construct
T7 sequence (looked up): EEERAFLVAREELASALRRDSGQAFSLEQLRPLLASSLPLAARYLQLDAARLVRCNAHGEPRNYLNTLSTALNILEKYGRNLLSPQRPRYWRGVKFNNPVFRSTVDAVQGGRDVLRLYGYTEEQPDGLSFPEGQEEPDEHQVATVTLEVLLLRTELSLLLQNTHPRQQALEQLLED

[9] = biological target: T8, HOIP extended PUB domain (aa 1–184) (UniProt Q96EP0 1-184); assay: fluorescence polarisation; serially diluted PUB domains and HOIP variants mixed with an equal volume of 100 nM FITC-Ahx-labeled peptide; one-site binding model; triplicate; settings: both partners purified
T8 construct: 15N- or 13C,15N-labelled for NMR; Construct details are in the Supplemental Experimental Procedures; also called HOIP PUB domain
T8 sequence (looked up): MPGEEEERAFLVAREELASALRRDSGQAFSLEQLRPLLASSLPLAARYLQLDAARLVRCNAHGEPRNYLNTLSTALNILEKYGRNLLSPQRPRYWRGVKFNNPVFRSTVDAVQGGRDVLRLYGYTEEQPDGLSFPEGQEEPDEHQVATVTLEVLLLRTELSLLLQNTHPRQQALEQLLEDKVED

[10] = biological target: T9, UBXD1 PUB domain (aa 150–264) (UniProt Q9BZV1 150-264); assay: as above; settings: both partners purified
T9 construct: UBXD1, PUB domain, residues 150-264; also called minimal UBXD1 PUB domain
T9 sequence (looked up): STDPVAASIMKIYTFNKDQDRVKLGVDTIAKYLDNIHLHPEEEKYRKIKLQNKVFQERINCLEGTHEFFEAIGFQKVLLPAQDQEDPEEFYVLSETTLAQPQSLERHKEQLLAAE

[11] = biological target: T10, PNGase PUB domain (aa 11–109) (UniProt Q96IV0 11-109); assay: as above; settings: both partners purified
T10 construct: PNGase (peptide:N-glycanase), PUB domain, residues 11-109
T10 sequence (looked up): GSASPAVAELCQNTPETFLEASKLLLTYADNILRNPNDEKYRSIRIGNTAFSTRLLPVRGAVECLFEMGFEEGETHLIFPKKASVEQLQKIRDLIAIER

[12] = biological target: T8, HOIP extended PUB domain (aa 1–184); assay: fluorescence polarisation; competition assay: p97 PIM peptide competes with the OTULIN PIM for the HOIP PIM pocket; settings: both partners purified

Molecule: inactive OTULIN with a mutation in the PIM (Y56A): catalytically inactive OTULIN (C129A) with PIM mutation Y56A
HOIP autoubiquitination with Met1-linked polyUb (in words) [1]: did not lead to HOIP autoubiquitination

Molecule: HOIP extended PUB domain (aa 1–184) (from UniProt Q96EP0 1-184) (domain or fragment)
Kd [2]: 0.18 µM

B3: FITC-Ahx-labeled p97 PIM peptide (aa 797–806) (peptide, UniProt P55072 797-806, looked up)
peptide: {FITC-Ahx}-TEDNDDDLYG
notes: p97 (VCP), C-terminal residues 797-806; also called p97 peptide; fluorescent p97 PIM peptide
Kd [9]: 7.6 µM and 6 µM
Kd (HOIP PUB domain N101R): 0.9 µM
binding result (HOIP PUB domain K99R): binds
Kd [10]: 12 µM
Kd [11]: 3 µM

Continued, values first:

binding result [3]: binds
Kd (HOIP PUB domain N101R): 0.1 µM
binding result [4]: binds
binding result [5]: binds
binding result (HOIP PUB domain K99R): binds
Kd (PNGase PUB domain R55A): 43 µM
Kd [6]: 9.38 µM
Kd [7]: 1.04 µM
B1: FITC-Ahx-labeled OTULIN PIM peptide (aa 49–67) (peptide, UniProt Q96BN8 49-67, looked up)
peptide: {FITC-Ahx}-AEHEEDMYRAADEIEKEKE
notes: OTULIN, residues 49-67, holds the EEDMYR motif (residues 52-57); also called OTULIN peptide; wild-type OTULIN PIM peptide

binding result [8]: binds
B2: unlabeled OTULIN PIM peptide (aa 49–67) (peptide, UniProt Q96BN8 49-67, looked up)
peptide: AEHEEDMYRAADEIEKEKE
notes: OTULIN, residues 49-67; Called unlabeled for NMR; also called OTULIN 49–67

Ki [12]: 37 µM
B4: unlabeled p97 PIM peptide (peptide, UniProt P55072 797-806, looked up)
peptide: TEDNDDDLYG
notes: p97 (VCP) PIM peptide; also called p97 peptide
